Data taken from US20260062487A1 (GRITSTONE BIO, published 2026).

Experiments:
[1] = target: biotinylated refolded A*01:01/b2m with … (Ala 6) (human, UniProt P61769 21-119); assay: BLI (Octet), biotinylated pHLA on streptavidin sensor, antibody as analyte;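 further: pHLA biotinylated through a C-terminal AviTag for uniform orientation, sensor data background-normalized, rate constants from global 1:1 kinetic fitting in Octet software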
Experimental: (§1) All the assay conditions were prepared in a volume of 200 μL. The pHLA complex biotinylated at the C-terminal AviTag was used to ensure uniform directionality of the protein. […] Using the ForteBio Data Analysis suite, the data was normalized to the association curves followed by background normalization. Curve fitting using global fitting of the sensor data with the Octet™ software using 1:1 kinetic model with errors within 10%, X2below 3, and R2above 0.9 to determine the association and dissociation constants.

[2] = target: biotinylated refolded A*01:01/b2m with … (Ala 4) (human, UniProt P61769 21-119); assay: as above
Experimental: as §1

[3] = target: biotinylated refolded A*01:01/b2m with … (Ala 1) (human, UniProt P61769 21-119); assay: as above
Experimental: as §1

[4] = target: biotinylated refolded A*01:01/b2m with […] (Ala 3) (human, UniProt P61769 21-119, biotinylated at the C-terminal AviTag); assay: as above
Experimental: as §1

[5] = target: T1, biotinylated refolded A*01:01/b2m with … (alanine at position 9) (human, UniProt P61769 21-119); assay: as above
Experimental: as §1

[6] = target: T2, biotinylated refolded G2-pHLA (A*01:01/b2m/…) (human, biotinylated at the C-terminal AviTag); assay: as above
T2 construct: Soluble complex caught on streptavidin sensors or MSD plates; also called G2-peptide A*01:01/b2m complex; WT
Experimental: as §1

[7] = target: biotinylated refolded A*01:01/b2m with … (Ala 2) (human, UniProt P61769 21-119); assay: as above
Experimental: as §1

[8] = target: biotinylated refolded A*01:01/b2m with … (Ala 5) (human, UniProt P61769 21-119); assay: as above
Experimental: as §1

[9] = target: biotinylated refolded A*01:01/b2m with … (alanine at position 8) (human, UniProt P61769 21-119); assay: as above
Experimental: as §1

[10] = target: T1, biotinylated refolded A*01:01/b2m with …; assay: BLI (Octet), biotinylated pHLA on streptavidin sensor
Experimental: as §1

B1: monovalent Format 3-E07-hOKT3a antibody (bispecific antibody, V domains shown)
VH 1: QVQLVQSGAEVKKPGASVKVSCKASGFTFTNYLIHWVRQAPGQGLEWMGWINPNSGGTNYAQRLQGRVTMTRDTSTSTVYMELSSLRSEDTAVYYCARDYGAGNDYWGQGTLVTVSS
VL 1: DIQMTQSPSSLSASVGDRVTITCRASQEIRRWLAWYQQKPGKAPKLLIYAASNLQSGVPSRFSGSGSGTDFTLTISSLQPEDFATYYCQQSYSTPYTFGQGTKLEIK
VH 2: QVQLVQSGAEVKKPGASVKVSCKASGYTFTRYTMHWVRQAPGQGLEWMGYINPSRGYTNYNQKFKDRVTLTTDKSSSTAYMELSSLRSEDTAVYYCARYYDDHYSLDYWGQGTLVTVSS
VL 2: DIQMTQSPSSLSASVGDRVTITCSASSSVSYMNWYQQKPGKAPKRLIYDTSKLASGVPSRFSGSGSGTDFTLTISSLQPEDFATYYCQQWSSNPFTFGQGTKLEIK
**Q.** For B1, which “Fold change in Response (against WT)” value [1] is on record?
**A.** 2.7 fold

**Q.** And the “Fold change in affinity (against WT)” value [1]?
**A.** 13.3 fold

**Q.** What about the Kd [1] of the same binder?
**A.** 16 nM

**Q.** And the “Max Response (nm)” value [1]?
**A.** 0.09 nm

**Q.** And the “Fold change in affinity (against WT)” value [2]?
**A.** 7.3 fold

**Q.** And the Kd [2]?
**A.** 8.7 nM

**Q.** And the “Max Response (nm)” value [2]?
**A.** 0.24 nm

**Q.** And the “Fold change in affinity (against WT)” value [3]?
**A.** 2.5 fold

**Q.** What about the Kd [3] of the same binder?
**A.** 3 nM

**Q.** And the “Max Response (nm)” value [3]?
**A.** 0.26 nm

**Q.** And the “Fold change in Response (against WT)” value [4]?
**A.** 1.6 fold

**Q.** And the “Fold change in affinity (against WT)” value [4]?
**A.** 14.2 fold

**Q.** And the Kd [4]?
**A.** 17 nM

**Q.** What about the “Max Response (nm)” value [4] of the same binder?
**A.** 0.15 nm

**Q.** What about the “Max Response (nm)” value [5] of the same binder?
**A.** 0 nm

**Q.** And the Kd [6]?
**A.** 1.2 nM

**Q.** And the “Max Response (nm)” value [6]?
**A.** 0.24 nm

**Q.** What about the Kd [7] of the same binder?
**A.** 1.5 nM

**Q.** What about the “Max Response (nm)” value [7] of the same binder?
**A.** 0.24 nm

**Q.** What about the “Fold change in affinity (against WT)” value [8] of the same binder?
**A.** 13.3 fold

**Q.** What about the Kd [8] of the same binder?
**A.** 16 nM

**Q.** And the “Max Response (nm)” value [8]?
**A.** 0.21 nm

**Q.** And the “Fold change in affinity (against WT)” value [9]?
**A.** 6.7 fold

**Q.** What about the Kd [9] of the same binder?
**A.** 8 nM

**Q.** And the “Max Response (nm)” value [9]?
**A.** 0.24 nm

**Q.** Does B1 bind [10]?
**A.** no binding (tested: typically 500-0 nM antibody)
